From US20190367631A1

Columns and labels:
[1] = biological target: human MSR1 extracellular domain expressed with a N-terminal nonahistidine tag (human) (UniProt P21757); assay: competition ELISA, plate-coated His9-hMSR1; 100 nM control antibody, competitor ligand Ac-LDL
[2] = biological target: human MSR1 extracellular domain expressed with a N-terminal nonahistidine tag (human) (UniProt P21757); assay: competition ELISA, plate-coated His9-hMSR1; 1 µM control antibody, competitor ligand 10 nM Ox-LDL
[3] = biological target: human MSR1 extracellular domain expressed with a N-terminal nonahistidine tag (human) (UniProt P21757); assay: competition ELISA, plate-coated His9-hMSR1; 300 nM control antibody, competitor ligand biot-AGE-BSA
[4] = biological target: endogenously expressed human MSR1 on PMA-treated THP-1 cells (human) (UniProt P21757); assay: cell-based or functional assay
Chain of endogenously expressed human MSR1 on PMA-treated THP-1 cells (human) (P21757 whole entry): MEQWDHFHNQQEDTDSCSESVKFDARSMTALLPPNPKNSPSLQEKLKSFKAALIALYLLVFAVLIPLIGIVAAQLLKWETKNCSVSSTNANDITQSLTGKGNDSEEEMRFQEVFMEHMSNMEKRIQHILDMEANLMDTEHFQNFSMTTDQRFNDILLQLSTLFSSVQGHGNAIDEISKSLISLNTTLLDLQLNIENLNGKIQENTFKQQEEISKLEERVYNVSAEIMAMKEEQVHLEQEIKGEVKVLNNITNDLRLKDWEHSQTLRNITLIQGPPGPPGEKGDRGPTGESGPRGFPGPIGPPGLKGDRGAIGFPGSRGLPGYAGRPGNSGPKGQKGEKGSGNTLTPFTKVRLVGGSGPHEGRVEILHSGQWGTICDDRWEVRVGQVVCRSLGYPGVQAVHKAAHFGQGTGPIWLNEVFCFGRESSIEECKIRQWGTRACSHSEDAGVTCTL

[5] = biological target: endogenously expressed human MSR1 on PMA-treated THP-1 cells (human) (UniProt P21757); assay: confocal imaging, differentiated THP-1 cells, Alexa 488 secondary
[6] = biological target: full length human MSR1 with a C-terminal Myc tag, on HEK293.Myc.hMSR1 cells (human) (UniProt P21757); assay: ECL cell binding, HEK293.Myc.hMSR1 cells, 11 nM
Chain of full length human MSR1 with a C-terminal Myc tag, on HEK293.Myc.hMSR1 cells (human) (P21757 whole entry): as above

[7] = biological target: endogenously expressed human MSR1 on PMA-treated THP-1 cells (human) (UniProt P21757); assay: ECL cell binding, PMA-treated THP-1 cells, 11 nM

Chain of human MSR1 extracellular domain expressed with a N-terminal nonahistidine tag (human) (P21757 other isoform, or with tags, fused parts or gaps): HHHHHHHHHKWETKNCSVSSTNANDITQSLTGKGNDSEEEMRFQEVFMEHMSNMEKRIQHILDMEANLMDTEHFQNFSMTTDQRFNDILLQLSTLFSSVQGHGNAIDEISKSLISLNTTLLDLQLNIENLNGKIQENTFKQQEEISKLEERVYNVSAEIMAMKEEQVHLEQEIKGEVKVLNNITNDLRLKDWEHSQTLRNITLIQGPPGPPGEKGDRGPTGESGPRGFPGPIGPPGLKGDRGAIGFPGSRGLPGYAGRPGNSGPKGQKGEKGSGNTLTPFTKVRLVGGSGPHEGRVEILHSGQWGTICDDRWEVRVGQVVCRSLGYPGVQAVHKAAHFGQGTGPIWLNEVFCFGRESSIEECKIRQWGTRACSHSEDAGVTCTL

Substance | % Blocking [1] [%] | % Blocking [2] [%] | % Blocking [3] [%] | ratio of binding signal (RLU) to isotype control [6] [fold] | ratio of binding signal (RLU) to isotype control [7] [fold] | other results
mIgG1 isotype control (antibody) | -4 | 16 | 7 | – | – | –
Isotype control (antibody) | – | – | – | – | – | Total Internalized RFU [4]: 1.7e+06 RFU; Total Binding at 4° C. (RFU) [5]: 186000 RFU; Total Binding at 37° C. (RFU) [5]: 1.09e+06 RFU
hIgG1 isotype control (antibody) | -8 | 3 | 4 | – | – | –
hIgG1 Isotype Control (antibody) | – | – | – | 1 | 1 | –
mIgG Isotype Control (antibody) | – | – | – | 1 | 1 | –
